Data as given in PMC10197565 (bioRxiv, 2023).

Biological target: the molecule itself
Assay: cryo-EM structure

B1: MBP-Vpu full length (HIV-1 Vpu fused to maltose binding protein) (natural protein)
chain: MQPIPIVAIVALVVAIIIAIVVWSIVIIEYRKILRQRKIDRLIDRLIERAEDSGNESEGEISALVEMGVEMGHHAPWDVDDL
- stoichiometry N: 6
